Positions count from the first letter of the chain named.
B1: S. cerevisiae Atg23 FL (recombinant, purified) (natural protein, UniProt Q06671 1-453, looked up)
chain: MELNQVLEKKEQILQYLGTLVGLHEKALSDVNSASQVTSIRKDITICLNDLCRINDLLVSHDGLLKREIGSLLRDKQELLELNEREQLLWKERKSWHIKQETDAAPADYVIDKDAIITISSHHRTSLNKYIESVGAENTILSNTDDSDAMIEEVQNAESSADQMIRNYKLLQLSHKQAKSEIIRLETLLRDFKKDNKFIEEELKRQSGRIRSEMGNIDFHLSKIEESKHQLMKRIGFESPLTQEKSLSEKIFNLRLSSADEDYNERQTINMKNFVHMKDLIELKIEDLQEQLMRNKNESSTVLTQRELWLDCQKKVGDLESKLITKLRSSSNSKIPPNEMSEMINSTIQYLNNLLDSSDEKLTTTLISNERDVLSKACEELHSESTTAQDGSSALPSKPIDIHKSHKGSNASSNLKQPSTPSFLVASKSPPKIGISESVVNANKNDAISKKVE
B2: Atg23 M3 (recombinant, purified) (natural protein, S. cerevisiae, UniProt Q06671 1-453, looked up)
chain: B1 chain with K66E, R67E
B3: Atg23 M5 (recombinant, purified) (natural protein, S. cerevisiae, UniProt Q06671 1-453, looked up)
chain: B1 chain with K66E, R67E, R74E, R85E, K296E
B4: Atg23 M4 (recombinant, purified) (natural protein, S. cerevisiae, UniProt Q06671 1-453, looked up)
chain: B1 chain with K66E, R67E, K296E

Molecular target: the molecule itself
Assay: AUC

| Protein | stoichiometry N |
| --- | --- |
| B1 | 2 |
| B2 | 2 |
| B3 | 2 |
| B4 | 2 |

— PMC9097366 (Cell reports, 2022)
